Source: patent publication US20130045895A1 (published 2013)
Where a chain is given by its changes, count along the chain named. Names and notes keep the numbering of the source.

How the values were obtained:
[1] = molecular target: Protein L (Peptostreptococcus magnus); assay: BIAcore 3000, over Protein L (~500-700 RU)
[2] = molecular target: Protein L (Peptostreptococcus magnus); assay: BIAcore 3000, over Protein L; statistic over the plates analysed
Human Serum Albumin [3] = molecular target: T1, Human Serum Albumin (human, UniProt P02768 25-609); assay: see Table 2
T1 construct: also called HSA; antigen

[4] = molecular target: the molecule itself; assay: analytical ultracentrifugation (sedimentation equilibrium), self-association
Experimental: In the present examples, three 6-channel equilibrium cells were loaded with 9 protein solutions made by diluting the stock sample 10-, 20-, 30-, 150-, 200-, 300-, 400-, 500, and 600-fold (a range from 540 to 90 μg/ml). Each sample channel was loaded with 120 μl of protein solution and the reference channels were loaded with 125 μl of Dulbecco's phosphate-buffered saline (DPBS) dilution buffer. These cells were then loaded into an AN90-TI rotor and placed into a Beckman Coulter ProteomeLab XL-1 analytical centrifuge equipped with both absorbance and Rayleigh interference (refractive index detection) optical systems. Absorbance scans for the three highest concentrations were recorded at 280 nm; for the lowest concentrations 230 nm was used. The temperature was set at 25° C.

Human Serum Albumin [5] = molecular target: T1, Human Serum Albumin; assay: BIAcore, purified protein over HSA (559 RU)
Human Serum Albumin [6] = molecular target: T1, Human Serum Albumin; assay: BIAcore, supernatant over immobilised HSA (6036 RU);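 note: expressed culture supernatants of mutant clones diluted 1:1 in HBS-EP buffer and screened for binding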
Experimental: Screening of expressed supernatants for Protein L and HSA binding: Mutant clones were picked into a 96 well plate format and expressed in 1 mL 2×TY 0.1 mg/ml carbenicillin supplemented with OnEx solutions 1, 2 and 3 according to the manufacturer's instructions (Novagen). Cultures were grown at 30° C. for 3 days at 950 rpm high humidity in an InforsHT shaker. Cells were pelleted by centrifugation (4.5 k in a bench top Sorvall centrifuge for 30 mins) and 75 μL of the supernatant added to an equal volume of HBS-EP buffer (GE Healthcare).

Human Serum Albumin [7] = molecular target: T1, Human Serum Albumin; assay: SPR (Biacore 2000), purified dAb over HSA (559 RU) on CM5 chip
Text: (§1) The data analysis followed routine and established algorithms using the instrument's software (Bia-evaluation 3.2 RC1).

Human Serum Albumin [8] = molecular target: T1, Human Serum Albumin; assay: as above; remark: listed apart in the source
Text: as §1

Human Serum Albumin [9] = molecular target: T1, Human Serum Albumin; assay: SPR (Biacore 2000), purified dAb over HSA (559 RU) on CM5 chip; Table 13 cell, backed by its kon and koff
Text: as §1

T1 sequence (P02768 25-609 limits assumed): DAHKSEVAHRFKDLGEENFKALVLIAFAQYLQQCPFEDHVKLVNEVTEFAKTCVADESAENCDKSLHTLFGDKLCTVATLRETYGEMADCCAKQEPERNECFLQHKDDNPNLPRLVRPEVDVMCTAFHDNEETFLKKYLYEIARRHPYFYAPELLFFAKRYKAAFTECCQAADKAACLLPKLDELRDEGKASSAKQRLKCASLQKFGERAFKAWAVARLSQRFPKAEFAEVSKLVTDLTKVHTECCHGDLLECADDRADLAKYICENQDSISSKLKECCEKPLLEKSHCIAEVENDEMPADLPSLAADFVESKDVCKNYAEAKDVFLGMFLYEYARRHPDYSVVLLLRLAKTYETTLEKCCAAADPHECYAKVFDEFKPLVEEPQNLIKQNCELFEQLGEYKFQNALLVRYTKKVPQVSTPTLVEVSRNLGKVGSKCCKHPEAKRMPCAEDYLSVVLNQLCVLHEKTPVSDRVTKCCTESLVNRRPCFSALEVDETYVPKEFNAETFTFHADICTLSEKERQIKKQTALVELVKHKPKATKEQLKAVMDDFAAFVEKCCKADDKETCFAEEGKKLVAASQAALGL

B1: DOM4-130-54 (protein)
VL: DIQMTQSPSSLSASVGDRVTITCRASQDIYLNLDWYQQKPGKAPKLLINFGSELQSGVPSRFSGSGYGTDFTLTISSLQPEDFATYYCQPSFYFPYTFGQGTKVEIKRA
B1 was tested, and the % B5 (proportion of dAb bound at 5 min of dissociation) [1] was 4%, the % B5, 25% Percentile [2] was 3.9% and the % B5, 75% Percentile [2] was 4%. The % B5, Maximum [2] was 4%, the % B5, Mean [2] was 3.9% and the % B5, Median [2] was 4%. The % B5, Minimum [2] was 3.6%.

B2: DOM7h-8 (other)
VL: DIQMTQSPSSLSASVGDRVTITCRASQSISSYLNWYQQKPGKAPKLLIYRNSPLQSGVPSRFSGSGSGTDFTLTISSLQPEDFATYYCQQTYRVPPTFGQGTKVEIKR
notes: also called DOM7h-8 parent molecule; SD ctrl
For B2, the binding result (Human Serum Albumin [3]) was “binds” and the Kd [4] was 120 nM.

B3: DOM7h-8 L46D (other)
VL: B2 VL with L46D
B3: binds (Human Serum Albumin [5]).

B4: DOM7h-8 Y87L (other)
VL: B2 VL with Y87L
B4: binds (Human Serum Albumin [5]).

B5: DOM7h-14 (other)
VL: DIQMTQSPSSLSASVGDRVTITCRASQWIGSQLSWYQQKPGKAPKLLIMWRSSLQSGVPSRFSGSGSGTDFTLTISSLQPEDFATYYCAQGAALPRTFGQGTKVEIKR
notes: also called 7h14 wt
B5 was tested, and the binding result (Human Serum Albumin [6]) was “binds” and the Kd [4] was 250000 nM.

B6: DOM7h-14 Q38E (other)
VL: B5 VL with Q38E
B6: binds (Human Serum Albumin [6]).

B7: DOM7h-14 Q38F (other)
VL: B5 VL with Q38F
B7: binds (Human Serum Albumin [6]).

B8: DOM7h-14 Q38G (other)
VL: B5 VL with Q38G
B8: binds (Human Serum Albumin [6]).

B9: DOM7h-14 Q38H (other)
VL: B5 VL with Q38H
B9: binds (Human Serum Albumin [6]).

B10: DOM7h-14 Q38I (other)
VL: B5 VL with Q38I
B10: binds (Human Serum Albumin [6]).

B11: DOM7h-14 Q38K (other)
VL: B5 VL with Q38K
B11: binds (Human Serum Albumin [6]).

B12: DOM7h-14 Q38L (other)
VL: B5 VL with Q38L
B12: binds (Human Serum Albumin [6]).

B13: DOM7h-14 Q38M (other)
VL: B5 VL with Q38M
B13: binds (Human Serum Albumin [6]).

B14: DOM7h-14 Q38N (other)
VL: B5 VL with Q38N
B14: binds (Human Serum Albumin [6]).

B15: DOM7h-14 Q38P (other)
VL: B5 VL with Q38P
B15: binds (Human Serum Albumin [6]).

B16: DOM7h-14 Q38R (other)
VL: B5 VL with Q38R
B16: binds (Human Serum Albumin [6]).

B17: DOM7h-14 Q38S (other)
VL: B5 VL with Q38S
B17: binds (Human Serum Albumin [6]).

B18: DOM7h-14 Q38T (other)
VL: B5 VL with Q38T
B18: binds (Human Serum Albumin [6]).

B19: DOM7h-14 Q38V (other)
VL: B5 VL with Q38V
B19: binds (Human Serum Albumin [6]).

B20: DOM7h-14 Q38W (other)
VL: B5 VL with Q38W
B20: binds (Human Serum Albumin [6]).

B21: DOM7h-14 Q38Y (other)
VL: B5 VL with Q38Y
B21: binds (Human Serum Albumin [6]).

B22: DOM7h-14-10 (other)
VL: B5 VL with A92L, A93R, L94H, R96K
notes: also called DOM7h-14-10 parent
For B22, the Kd (Human Serum Albumin [7]) was 26 nM, the koff (Human Serum Albumin [7]) was 0.017 s⁻¹ and the kon (Human Serum Albumin [7]) was 670000 M⁻¹ s⁻¹.

B23: DOM7h-14-10 A43D (other, name in Kabat numbering)
VL: B5 VL with A43D, A92L, A93R, L94H, R96K
notes: also called A43D mutant of DOM7h-14-10
In the case of B23, the “fold improvement in antigen affinity over DOM7h-14-10” value (Human Serum Albumin [8]) is reported as 2 fold, the Kd (Human Serum Albumin [7]) is reported as 11.7 nM and the koff (Human Serum Albumin [7]) is reported as 0.012 s⁻¹. For the same binder, the kon (Human Serum Albumin [7]) was 990000 M⁻¹ s⁻¹.

B24: DOM7h-14-10 A43I (other, name in Kabat numbering)
VL: B5 VL with A43I, A92L, A93R, L94H, R96K
notes: also called A43I mutant of DOM7h-14-10
With B24 the “fold improvement in antigen affinity over DOM7h-14-10” value (Human Serum Albumin [8]) was 2 fold, the Kd (Human Serum Albumin [7]) was 13.1 nM and the koff (Human Serum Albumin [7]) was 0.012 s⁻¹. For the same binder, the kon (Human Serum Albumin [7]) was 890000 M⁻¹ s⁻¹.

B25: DOM7h-11-15 (other)
VL: DIQMTQSPSSLSASVGDRVTITCRASRPIGTMLSWYQQKPGKAPKLLILAFSRLQSGVPSRFSGSGSGTDFTLTISSLQPEDFATYYCAQAGTHPTTFGQGTKVEIKR
notes: also called DOM7h-11-15 parent
For B25, the koff (Human Serum Albumin [7]) was 0.0045 s⁻¹, the kon (Human Serum Albumin [7]) was 12000 M⁻¹ s⁻¹ and the Kd (Human Serum Albumin [9]) was 384 nM.

B26: DOM7h-11-15 A43D (other, name in Kabat numbering)
VL: B25 VL with A43D
notes: also called A43D mutant of DOM7h-11-15
B26 showed a Kd (Human Serum Albumin [7]) of 7000 nM, a koff (Human Serum Albumin [7]) of 0.0047 s⁻¹ and a kon (Human Serum Albumin [7]) of 664 M⁻¹ s⁻¹.

B27: DOM7h-11-15 A43I (other, name in Kabat numbering)
VL: B25 VL with A43I
notes: also called DOM7h-11-15 A43I mutant
With B27 the “fold improvement in antigen affinity over the DOM7h-11-15 parent” value (Human Serum Albumin [8]) was 1000 fold, the Kd (Human Serum Albumin [7]) was 6.4 nM and the koff (Human Serum Albumin [7]) was 0.0049 s⁻¹. The kon (Human Serum Albumin [7]) was 770000 M⁻¹ s⁻¹.
